Article PMC4350284

Experiments:
STAT5A = STAT5A (UniProt P42230); experiment: biotin-peptide precipitation from lysate, GFP blot; conditions: reference: non-phosphorylated Src peptide; sites Y416
STAT5A-eYFP (murine) = STAT5A-eYFP (murine) (UniProt P42230)

| Substance | binding against the reference (STAT5A) | subcellular distribution of STAT5A-eYFP in HeLa T-REx FRT cells expressing vSrc^Y416F-dsRed, nucleus/cytoplasm (n/c) ratio (STAT5A-eYFP (murine)) |
| --- | --- | --- |
| Src-peptide (activation loop of cSrc (vSrc), Yes and Fyn) (from UniProt P00523) pY416 Src peptide | gained | – |
| vSrc^Y416F-dsRed (from UniProt P00524 1-526) (enzyme) | – | 1 |
